20 sequences from the DeepSol protein solubility set can be followed below.

The nature of the data set: soluble on expression in E. coli; label from the status in PepcDB or PDB records.
For the sequence “YLLGAFKPACNISITFSDGKNRKQVPMKKENGQTALVPLFHSQDTISGKVCIEPYQGKKVEHNGVKVELLGQIANYSYDSFLLLTTVRELDVPGEIYERKTYPFEFPTVEMPYETYNGVNVRLRYVLKVTVTRGYAGSILEYQELVRNYAPLPDINNSIKMEVGIEDCLHIEFEYNKSKYHLKDVILGKIYFLLVRIKMKNMDLEIRRRESTGAGANTHVETETLAKFELMDGTPVRGESIPVRLFLAPYDLTPTHRNINNKFSVKYYLNLVLVDEEDRRYFKQQEITLYRLKEDASS”, the “soluble on expression in E. coli” value is listed as “soluble”. To “MNPLLQDYARILLEWNQTHNLSGAKNLSELEPQITDALKPLEFIKDFKSCLDIGSGAGLPAIPLALEKPEVKFILLEPRIKRAAFLNYLKSVLPLKNIEIIKKRLEDYQNLLQVDLITSRAVASSSFLIEKSQRFLKDKGYFLFYKGEQLKDEIACKDTECFMHQKRVYFYKSKESLCLEHHHHHH” belongs “soluble”. In the case of “SLSPRRLRLLLVDENPTARAVIGRRLSHRHYDVTVVEDGFAAQKTLIIQPSDIILIDMDLQLLPAIGTMEKIRAAHPAGHACIVMIGGASDTPKMIAALDAGADDHIVKPFDFDMLDARLRRVHARAEREG”, the “soluble on expression in E. coli” value was “not soluble”.

On to “MDPSQQTPQETVVAPVAPLLEDQLELDMKHCFENLIVIDVGANLTNKKYSRDLDSVVQRARDAGVQKLMVHGTSVKSSKEALRLSRIYPDIIYSTAGIHPHDSKSIVEEPATWFDLEHIAQAQECVAIGPCGLDYQRDFSEPDAQKQIFAKQLHLAIRLNKPLLIHERSAQLDLLEILDKFENLPPVIIRGFMGTAEEALKYLDRRFYISLTGYLCKDKSDTGVRRLLEDGTLPLDRLLVETDAPFMYPNTRASKLPQHVKTGITERSLLYLHRYCTFQRNEPCSLPAIVEMIAAFMKKSPDEVALATAFNALKLFGLSLEHHHHHH”, for which the “soluble on expression in E. coli” value is on record as “soluble”. To “MLYLHDIWVNWFEGEENGYNVCHFHEWRKDDQIELLDQVPLLKVSPALFHYIENSLSDLPKPLLDDVHQKAYVRKNHERIQLDYCFVVTDGAGVLAVDTIGYQIPIRKSRLIPRQEQLVYEMAAEAEERDYPLPRYEKEYHILSPAPELMCGLTRKERQLKQLLFMALDQLYSTKNTAQMRYWYTEWAPEKYAAIQKMSFDEAWEQLYNETKYGWSERHEQLCENLIKGQPFFEKLWEMEQEPKVN” belongs “soluble”. In the case of “MRESHNVLPPVAPVRPITRTHHGIDFVDNYEWLRDKENPETIQYLEAENAFVEQQTAHLSQLKDNIYHEIKSRVKETDMSVPQRAGDFWYYGRSVEGKSYGYSCRIPVSEGADAWVPPTIPEREPVAGEQIILDANELAEGHEFFALGASTVTTSGRYLAYSVDTEGDERFTLRVKDLATGEHLADEIPDVFYGATWAGEEYLFYQRVDAAWRPDSVWRHKIGTDPATDVQVFHEADERFNTGVGATRSERFLMIESASKITSEIWVLDLDNPTGDFRCVLPRQAGVEYDIDHAVVAGRDTWIVTHNAAGPNFEVGWTPVTDEEISLDSLEVLVPHRDEVRIEGVDTYRDHIVLAYRSGAIGRAAVMQLNADGFGTFEEITFDEELYTIGVGGHPEWDTPVVRMVYVSFTQPSQVFDYWIADGRRTLLKQQEVVGGYNADDYTASRLWVEAHDGVRIPVSLIHRSDLDLSKPNPTLLYGYGSYESSIDPGFSIARLSLMDRGMVFAIAHVRGGGEMGRGWYDTGKTVTKKNTFTDFIAVADHLIEHGVTTSEMLVAEGGSAGGMLMGAVANMAGDRFKAIEAVVPFVDPLTSMLMPELPLTVTEWDEWGDPLHDVDVYNYMASYAPYENIEAKAYPNILAVTSLNDTRVLYVEPAKWIAQLRATATGGQFLLKTEMSAGHGGVSGRYEKWKQTAFEYAWLCHQATGKES” it was “not soluble”; in that of “MPFSFFSRKKPSRRFNDFYEDWSKTLTENCLPLLRQSLSSAASASVLSSNVDLVLRHLVLYYETLDLAADHNTIPYLLFPSWRNSLETPFLFLGDIHPYLLTNLLRSFIDRENQDSDDEDEETSLDLVNQPLKMTMAWKDPSDELVKRIDQIECTMRLMVPGLMDRMRKTQRSFVARVSESWVSSYQVGKKKKLTATVATASTSVDEAAKIEMEELVSIFVDANRLRKSVIMDIVGATSEHQAALFLEGLCQFLAGFKDQILLQDFEILSLPN”, “soluble”. In the case of “MASLSQTPPDLPLCRGDRVRMSPLGRERHPRYGTREGVIVGQGSPSSWRVKFDDRKTIQAIHQDYLERVPAQAARFDSSEIWNGWRNDPPATA”, the “soluble on expression in E. coli” value was “not soluble”.

For “MDKKTACAHVAEPCEFSYSTRDAIIYALGVGARAKEDLCYVYENHEDFKVLPSYIVAPGFQAHTLMDWPGVEFDLQRVLHGEQYIEVYQPLSAEGKLKSEARVVDILDKGSGALILGNVTTYDENGKKIAMQQFSTFQTGSGNFGGDRTSPHEIKAATVPDRAPDAVIEQKTTVDQAALYRLGSGDMNPLHVDPEFAKMSGFKTPILHGLCSLGFATRHVIAAWAGNDSDKFKAIKVRFSSPVLPGQTLVTETWKNGKRIIFQMKVKETGKIVISNAFIDLHEASELPTVPIDLASKL”, the “soluble on expression in E. coli” value was “not soluble”. In the case of “MGSDKIHHHHHHMKKTERINDMLIFLNNKRYFNLKDLMVRYDISKSTALRDIQSLEEIGVPIYSELGRNGSYKIIENSVLSPIYFSVDEMYALYFSILTLNGYKTKPFNIESIALENKFKHVLPDNVRKNIAIMERTLSFEVTNHSNFSPFLKEILQGIFAERVYHLTYLKKDVEKALIAQFIRIESKFGQWYAKIFNFETNNVQIIRCDKILSIVETSNTKPKNLEELLNYLATFHRKPDAIDFIVIVNQRGKDIFDKENYPSMRIQKENEHYIITGYFNKQEVDLSRTIF” it was “not soluble”. “MSEYREIITKAVVAKGRKFTQCTNTISPEKKPSSILGGWIINHKYDAEKIGKTVEIEGYYDINVWYSYADNTKTEVVTERVKYVDVIKLRYRDNNYLDDEHEVIAKVLQQPNCLEVTISPNGNKIVVQAEREFLAEVVGETKVVVEVNPDWEEDDEEDWEDELDEELEDINPEFLVGDPEELEHHHHHH”: the “soluble on expression in E. coli” value is given as “soluble”.

As for “MTHQKRLSVPKSWKVGRKGNKWISTTRPGPHSQARSLPLGLIIRDVLKLVDNNREGKRILSEGKVLVDGISRKDLRFPVGLFDVITLPLVNEAYRMLQDEKGRLVLYKLNETNVNKLCRINNKTTVKGGKIQLNLNDGTNILGSNDYGTKDSLILSIPDKHVVKHLKFEVGNLAMVIGGQHSGETGKIMEIREVKSSRHNTVMISGETDFETIEDYVIVIGEDKPEIRLGGEISELEHHHHHH”, the “soluble on expression in E. coli” value is “soluble”. As for “MAGNANSVDEEVTRILGGIYLGGIRPIIDHRPLGAEFNITHILSVIKFQVIPEYLIRKGYTLKNIPIDDDDVTDVLQYFDETNRFIDQCLFPNEVEYSPRLVDFKKKPQRGAVFAHCQAGLSRSVTFIVAYLMYRYGLSLSMAMHAVKRKKPSVEPNENFMEQLHLFEKMGGDFVDFDNPAYKQWKLKQSIKLDPSGSELVSNSGMFKDSESSQDLDKLTEAEKSKVTAVRCKKCRTKLALSTSFIAHDPPSKESSEGHFIKRAANSHRIIDIQESQANCSHFFIEPLKWMQPELQGKQELEGKFSCPGCSSKVGGYNWKGSRCSCGKWVIPAIHLQTSKVDQFPLQSTALPNMVNFESEKVNR”, the “soluble on expression in E. coli” value is reported as “not soluble”. To “MKIEDIYQFFENPPPTYLCQEVAICYILYVLLQGESYGTELIQQLETEHPTYRLSDTVLYSAIKFLEDNRAITGYWKKLEGRGRPRRMYQVSPEWQHQAEDLARLWQNYIYVRTN” belongs “soluble”; to “MAHHHHHHMSDDIMNGDTLSEYRKIHKKNYEERIIKENELIEKQKTEELLNEKKKNEEIYRQLQIDKDREYSKQCYYEINNFQNIHERTYNDSDIRENYTQRLINPSAYSYIDNNMTQNLLDGDMGYTFSQRIRRFFLNK”, “not soluble”; to “GAMAEEATFTANFKDTDLKSFIETVGANLNKTIIMGPGVQGAVSIRTMTPLNERQYYQLFLNLLEAQGYAVVPMENDVLKVVKSSAAKVEPLPLVGEGSDNYAGDEMVTKVVPVRNVSVRELAPILRQMIDSAGSGNVVNYDPSNVIMLTGRASVVERLTEVIQRVDHAGNRTEEVIPLDNASASEIARVLESLTKNSGENQPATLKSQIVADERTNSVIVSGDPATRDKMRRLIRRLDSE”, “soluble”. On to “MANYPKELPAQTQSRQPGIESEMNPSPVYEYEDYKGADKLKGKVALITGGDSGIGRAVSVAYAKEGADIAIVYKDEHEDAEETKKRVEQEGVKCLLIAGDVGEEEFCNEAVEKTVKELGGLDILVNNAGEQHPKESIKDITSEQLHRTFKTNFYSQFYLTKKAIDYLKPGSAIINTTSINPYVGNPTLIDYTATKGAINAFTRTMAQALVKDGIRVNAVAPGPIWTPLIPATFPEETVAQFGQDTPMGRPGQPVEHVGCYVLLASD”, for which the “soluble on expression in E. coli” value is listed as “not soluble”. Take “MGSDKIHHHHHHMNSSQKRVLHVLSGMNRGGAETMVMNLYRKMDKSKVQFDFLTYRNDPCAYDEEILSLGGRLFYVPSIGQSNPLTFVRNVRNAIKENGPFSAVHAHTDFQTGFIALAARLAGVPVRVCHSHNTSWKTGFNWKDRLQLLVFRRLILANATALCACGEDAGRFLFGQSNMERERVHLLPNGIDLELFAPNGQAADEEKAARGIAADRLIIGHVARFHEVKNHAFLLKLAAHLKERGIRFQLVLAGDGPLCGEIEEEARQQNLLSDVLFLGTEERIHELMRTFDVFVMPSLYEGLPVVLVEAQASGLPCIISDSITEKVDAGLGLVTRLSLSEPISVWAETIARAAAAGRPKREFIKETLAQLGYDAQQNVGALLNVYNISTEKDHNR”: the “soluble on expression in E. coli” value is on record as “not soluble”. In the case of “MQVSVTGDFVGHIQELIRTEVLPYQWEALNDQIAGAEPSHCLDNFRAAAEKKGHIQFHGQPFQDSDIYKWIEAAAYTLAWHPDSDLEAKADQAIELICGAQQPDGYLNTYFILTGAQRWTHLLDGHELYCAGHLMEAAVAYYHATGKDKLLKAAQKLADHIADVFGTSPGKIPGYPGHPEVELALIRLFEATGNIKYQQLAQYFICQRGASPSIFRKEADQFGWDWADSPFQFQFYQAGKPILEQTELEGHAVRALYLCCGIADVAARTQDAALLETCRRLWEDLTQTKLYITGGAGSSVYGEAFTFAYDLPNDTAYAETCAAVAVCFFAQRMMKISPSGAYGDVLEQALYNGVLSGMALDGKSFFYVNPLEVVPEACQKDQRKKHVKPIRQKWFACACCPPNLARLFASIGGYLHFIRAETLYTNLYVTSTSEFTFQGLPIKLHMDSAYPFDEKIHISLSLPRPMEFSYAVRIPAWCADYHVLINGKICAGTLKDGFLYLHRCWRDGDEVELTLSMPVRVVRANSLVRENIGKSAICRGPIVYCMEQLEHHHHHH” it was “not soluble”.

Take “HFRRSLRHIFRRRSAGELPAAHTAAAPGTPGEAAETPARPGLAKKFLPWSLAREPPPEALKEAVLRYSLADEASMDSGARWQRGRLALRRAPGPDGPDRVLELFDPPKSSRPKLQAACSSIQEVRRCTRLEMPDNLYTFVLKVKDRTDIIFEVGDEQQLNSWMAELSECTGRGLESTEAEMHIPSALEPSTSSSPRGSTDSLNQGASPGGLLDPACQKTDHFLSCYPWFHGPISRVKAAQLVQLQGPDAHGVFLVRQSETRRGEYVLTFNFQGIAKHLRLSLTERGQCRVQHLHFPSVVDMLHHFQRSPIPLECGAACDVRLSSYVVVVSQPPGSCNTVLFPFSLPHWDSESLPHWGSELGLPHLSSSGCPRGLSPEGLPGRSSPPEQIFHLVPSPEELANSLQHLEHEPVNRARDSDYEMDSSSRSHLRAIDNQYTPL”: the “soluble on expression in E. coli” value is on record as “soluble”.
